Experimental data reported in patent US20090317391A1 (Novartis, published 2009).
Where a chain is given by its changes, count along the chain named. Names may count otherwise.

B1: tm-PTPε P20C mutant, V5-tagged (receptor, not shown: small tags and cut ends)
chain: LRGNETTADSNETTTTSGPCDPGASQPLLAWLLLPLLLLLLVLLLAAYFFRFRKQRKAVVSTSDKKMPNGILEEQEQQRVMLLSRSPSGPKKYFPIPVEHLEEEIRIRSADDCKQFREEFNSLPSGHIQGTFELANKEENREKNRYPNILPNDHSRVILSQLDGIPCSDYINASYIDGYKEKNKFIAAQGPKQETVNDFWRMVWEQKSATIVMLTNLKERKEEKCHQYWPDQGCWTYGNIRVCVEDCVVLVDYTIRKFCIQPQLPDGCKAPRLVSQLHFTSWPDFGVPFTPIGMLKFLKKVKTLNPVHAGPIVVHCSAGVGRTGTFIVIDAMMAMMHAEQKVDVFEFVSRIRNQRPQMVQTDMQYTFIYQALLEYYLYGDTELDVSSLEKHLQTMHGTTTHFDKIGLEEEFRKLTNVRIMKENMRTGNLPANMKKARVIQIIPYDFNRVILSMKRGQEYTDYINASFIDGYRQKDYFIATQGPLAHTVEDFWRMIWEWKSHTIVMLTEVQEREQDKCYQYWPTEGSVTHGEITIEIKNDTLSEAISIRDFLVTLNQPQARQEEQVRVVRQFHFHGWPEIGIPAEGKGMIDLIAAVQKQQQQTGNHPITVHCSAGAGRTGTFIALSNILERVKAEGLLDVFQAVKSLRLQRPHMVQTLEQYEFCYKVVQDFIDIFSDYANFK
notes: Transiently expressed in NIH/3T3 cells; also called PTPRε P20C
B2: tm-PTPε D21C mutant, V5-tagged (receptor, not shown: small tags and cut ends)
chain: B1 chain with C20P, D21C
notes: Transiently expressed in NIH/3T3 cells; also called PTPRε D21C
B3: tm-PTPε P22C mutant, V5-tagged (receptor, not shown: small tags and cut ends)
chain: B1 chain with C20P, P22C
notes: Transiently expressed in NIH/3T3 cells; also called PTPRε P22C
B4: tm-PTPε G23C mutant, V5-tagged (receptor, not shown: small tags and cut ends)
chain: B1 chain with C20P, G23C
notes: Transiently expressed in NIH/3T3 cells; also called PTPRε G23C
B5: tm-PTPε A24C mutant, V5-tagged (receptor, not shown: small tags and cut ends)
chain: B1 chain with C20P, A24C
notes: Transiently expressed in NIH/3T3 cells (dimer blot) and stably in Rat-1 clones #8 and #26 (Src-Y529 blot); also called PTPRε A24C; PTPRε.A24C
B6: tm-PTPε S25C mutant, V5-tagged (receptor, not shown: small tags and cut ends)
chain: B1 chain with C20P, S25C
notes: Transiently expressed in NIH/3T3 cells; also called PTPRε S25C
B7: tm-PTPε Q26C mutant, V5-tagged (receptor, not shown: small tags and cut ends)
chain: B1 chain with C20P, Q26C
notes: Transiently expressed in NIH/3T3 cells (dimer blot) and stably in Rat-1 clones #1 and #30 (Src-Y529 blot); also called PTPRε Q26C; PTPRεQ26C
B8: HA-tm-PTPε (expressed from pDisplayHA tm-PTPε-FL#9) (receptor, not shown: small tags and cut ends)
chain: B1 chain with C20P
notes: Transiently expressed in 293T cells and tested from cell lysates; The tag is placed N-terminal on the strength of the name

How the values were obtained:
[1] = test system: tm-PTPε Q26C mutant, V5-tagged
[2] = test system: tm-PTPε (wild type, stably expressed in NIH/3T3 and Rat-1 cells)
[3] = test system: tm-PTPε A24C mutant, V5-tagged
[4] = target: the molecule itself; assay: V5 immunoblot, non-reducing conditions (figure legend; self-dimer)
Protocol: Whole cell lysates were prepared from NIH/3T3 transiently transfected with vectors expressing either a V5-tagged wild-type PTPRε or PTPRε P20C, D21C, P22C, G23C, A24C, S25C, Q26C mutants, as well as from empty vector control cell lines. Cell lysis was carried out in the presence of 20 mM iodacetamide. Iodacetamide inhibits glutathione reductase, the enzyme responsible for disulfide bridge reduction in vivo, to minimize dimmer cleavage. All the constructs encode a V5-tagged protein. Samples were analyzed in reducing and non-reducing conditions and immunoblotted, for wild-type or tm-PTPε mutant protein expression by probing with a V5-specific antibody. All the proteins are expressed as monomers in reducing conditions (FIG. 20A). In non-reducing conditions, however, while wild-type tm-PTPε was unable to form a dimer (because it is lacking cysteines in its extracellular domain), all tm-PTPε mutants formed dimers (FIG. 20B).

[5] = target: T1, SEMA4D-V5 (expressed from pDESTSEMA4D-V5) (UniProt Q92854 22-862, limits assumed); assay: co-immunoprecipitation (anti-HA or anti-V5) and western blot from lysates of co-transfected 293T cells
T1 construct: Control membrane protein co-transfected in 293T cells
T1 sequence (looked up): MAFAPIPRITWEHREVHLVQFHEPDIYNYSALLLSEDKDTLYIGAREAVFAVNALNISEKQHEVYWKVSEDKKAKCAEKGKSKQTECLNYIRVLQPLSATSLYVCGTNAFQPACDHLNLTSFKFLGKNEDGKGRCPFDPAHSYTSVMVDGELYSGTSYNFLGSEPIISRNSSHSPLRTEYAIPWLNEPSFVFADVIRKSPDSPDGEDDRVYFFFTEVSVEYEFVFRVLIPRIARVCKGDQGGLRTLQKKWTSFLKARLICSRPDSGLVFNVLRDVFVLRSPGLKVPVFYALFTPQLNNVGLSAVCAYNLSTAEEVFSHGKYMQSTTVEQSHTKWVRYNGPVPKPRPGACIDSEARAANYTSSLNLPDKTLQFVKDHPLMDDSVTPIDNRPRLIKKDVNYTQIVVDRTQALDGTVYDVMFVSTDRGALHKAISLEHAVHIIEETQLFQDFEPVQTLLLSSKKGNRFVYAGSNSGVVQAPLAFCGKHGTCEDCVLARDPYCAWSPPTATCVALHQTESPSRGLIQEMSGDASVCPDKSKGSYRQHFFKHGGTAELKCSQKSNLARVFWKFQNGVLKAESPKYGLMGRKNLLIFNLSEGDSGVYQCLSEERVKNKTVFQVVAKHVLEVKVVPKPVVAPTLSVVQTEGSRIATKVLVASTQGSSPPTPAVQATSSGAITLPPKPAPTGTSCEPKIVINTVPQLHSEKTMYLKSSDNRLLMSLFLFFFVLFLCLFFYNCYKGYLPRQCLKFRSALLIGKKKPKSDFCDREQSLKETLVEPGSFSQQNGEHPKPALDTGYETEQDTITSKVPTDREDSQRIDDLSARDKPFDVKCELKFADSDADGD
Protocol: Cells were harvested 72-hours later by scraping in 1 ml PBS. The pellets were lyzed on ice for 60 mins. in 500 ul lysis buffer: 50 mM Tris-HCl; pH7.5, 150 mM NaCl, 1 mM EDTA, 1% NP40, 0.25% Deoxycholate, 50 mMNaF, 20 mM Na3OV4 and protease inhibitors. 1 mM PMSF (0.3M stock solution in DMSO) was added to the lysis buffer before use. DNA was sheared with a needle. Lysates were then spun down for 10 mins. at 14,000 rpm. 200 ul cell lysates were incubated, overnight at 4° C. with gentle rocking, with lug of either rabbit polyclonal antibody to HA or V5 epitope tag (abcam; ab9110-100 and ab9116-100, respectively).
The next morning, a suspension protein A/G (50:50) agarose beads was washed twice in PBS then in lysis buffer. The beads (50% slurry) were incubated on ice in the lysis buffer for one hour. 30 ul of the proteinA/G suspension were added to the lysates and the mixture incubated for 4 hours at 4° C. with gentle rocking. Beads were then washed 3 times with 1 ml lysis buffer. Beads were resuspended in 30 μl sample buffer.
After protein transfer to membrane blots. Membranes were blocked over-night in PBST-5% Milk. The next day blots of the immunoprecipitation with V5 antibody were incubated with HA hybridoma supernatant (dilution 1:1000) for 1 hour whereas blots of the immunoprecipitation with HA antibody were incubated with V5-HRP (dilution 1:5000)

Row | Molecule | binding result [4] | other results
1 | Src |  | Src-Y529 phosphorylation levels (immunoblot with a Src-Y529 phospho-specific antibody) [1]: Like wild-type tm-PTPε, PTPRεQ26C mutant was able to dephosphorylate Src-Y529; Src-Y529 phosphorylation levels (immunoblot with a Src-Y529 phospho-specific antibody) [2]: tm-PTPε overexpression cause Src-Tyr-529 dephosphorylation in NIH/3T3 and Rat-1 cells; Src-Y529 phosphorylation levels (immunoblot with a Src-Y529 phospho-specific antibody) [3]: Both clones of tm-PTPε A24C mutant were unable to dephosphorylate Src-Y529
2 | B1 | binds | 
3 | B2 | binds | 
4 | B3 | binds | 
5 | B4 | binds | 
6 | B5 | binds | 
7 | B6 | binds | 
8 | B7 | binds | 
9 | B8 |  | binding result [5]: no binding
